From the Immune Epitope Database (IEDB)
Each block holds one sequence with its values, some of them ahead of it.

Assays:
[1] = target: HLA-B*44:02; assay: IEDB peptide-MHC binding, purified MHC/competitive/radioactivity; filed as Kd, often an IC50 or EC50 that approximates it; ≥ and ≤ were set here for values at or beyond the usual limits of such assays
[2] = target: HLA-B*44:03; assay: as above
[3] = target: HLA-A*02:01; assay: as above
[4] = target: HLA-B*27:05; assay: IEDB peptide-MHC binding, purified MHC/direct/fluorescence; filed as Kd, often an IC50 or EC50 that approximates it; ≥ and ≤ were set here for values at or beyond the usual limits of such assays
[5] = target: HLA-A*02:01; assay: as above; conditions: source organism: Mammarenavirus juninense
[6] = target: HLA-A*01:01; assay: as above
[7] = target: HLA-A*03:01; assay: as above
[8] = target: HLA-B*08:01; assay: as above
[9] = target: HLA-B*15:01; assay: as above; conditions: source organism: Mammarenavirus juninense
[10] = target: HLA-A*31:01; assay: as above
[11] = target: HLA-B*44:02; assay: as above
[12] = target: HLA-B*46:01; assay: as above
[13] = target: HLA-B*18:01; assay: as above
[14] = target: HLA-B*48:01; assay: as above
[15] = target: HLA-B*07:02; assay: as above; conditions: source organism: Mammarenavirus juninense
[16] = target: HLA-B*57:01; assay: as above
[17] = target: HLA-B*40:01; assay: as above
[18] = target: HLA-B*58:01; assay: as above
[19] = target: HLA-A*26:01; assay: IEDB peptide-MHC binding, purified MHC/competitive/fluorescence; filed as Kd, often an IC50 or EC50 that approximates it; ≥ and ≤ were set here for values at or beyond the usual limits of such assays; conditions: source organism: Influenza A virus (A/Waikato/7/2000(H3N2))
[20] = target: HLA-B*40:01; assay: IEDB peptide-MHC binding, purified MHC/competitive/radioactivity; filed as Kd, often an IC50 or EC50 that approximates it; ≥ and ≤ were set here for values at or beyond the usual limits of such assays
[21] = target: HLA-A*02:01; assay: IEDB peptide-MHC binding, purified MHC/competitive/fluorescence; ≥ and ≤ were set here for values at or beyond the usual limits of such assays
[22] = target: HLA-A*24:02; assay: as above
[23] = target: HLA-A*69:01; assay: IEDB peptide-MHC binding, purified MHC/direct/fluorescence; filed as Kd, often an IC50 or EC50 that approximates it; ≥ and ≤ were set here for values at or beyond the usual limits of such assays; conditions: source organism: Mycobacterium tuberculosis variant bovis BCG str. Pasteur 1173P2
[24] = target: HLA-A*11:01; assay: as above; conditions: source organism: Mycobacterium tuberculosis variant bovis BCG str. Pasteur 1173P2
[25] = source organism: Dengue virus 3 Martinique/1243/1999
[26] = source organism: Dengue virus 1 Singapore/S275/1990
[27] = source organism: Triticum aestivum
[28] = source organism: Mammarenavirus juninense
[29] = source organism: Dengue virus 4 Dominica/814669/1981
[30] = source organism: Zaire ebolavirus
[31] = source organism: Dengue virus 1 Brazil/97-11/1997
[32] = source organism: Sudan ebolavirus
[33] = source organism: Mycobacterium tuberculosis variant bovis BCG str. Pasteur 1173P2

Sequence: ADMGCVINW
- Kd [1, 25]: 0.0928 µM
- Kd [2, 25]: 0.11 µM

Sequence: AEHSGASHNI
- Kd [1, 26]: 0.0786 µM
- Kd [2, 26]: 0.502 µM

- Kd [3, 27]: 0.166 µM
Sequence: AIHNVVHAI

Sequence: DLKLVDVKL
- Kd [4, 28]: ≥ 20 µM
- Kd [5]: ≥ 20 µM
- Kd [6, 28]: ≥ 20 µM
- Kd [7, 28]: ≥ 20 µM
- Kd [8, 28]: ≥ 20 µM
- Kd [9]: ≥ 20 µM
- Kd [10, 28]: ≥ 20 µM
- Kd [11, 28]: ≥ 20 µM
- Kd [12, 28]: ≥ 20 µM
- Kd [13, 28]: ≥ 20 µM
- Kd [14, 28]: ≥ 20 µM
- Kd [15]: ≥ 20 µM
- Kd [16, 28]: ≥ 20 µM
- Kd [17, 28]: ≥ 20 µM
- Kd [18, 28]: ≥ 20 µM

Sequence: DTVHDRTPY
- Kd [19]: 0.0414 µM

Sequence: EEIDKKDGDL
- Kd [2, 29]: 0.421 µM
- Kd [20, 29]: 1.89 µM

- Kd [3, 27]: 5.55 µM
Sequence: ELCCQHLWQI

Sequence: ELSGYCSNI
- Kd ([3]; source organism: Lassa virus GA391): 12.5 µM

Sequence: EQLGVPLHL
- Kd ([14]; source organism: Vibrio alginolyticus 12G01): 0.488 µM

Sequence: EYLFEVDNL
- IC50 [21, 30]: 43.7 µM
- IC50 [22, 30]: 0.402 µM

Sequence: FEATARGARR
- Kd [20, 31]: 1.9 µM

Sequence: FFLWVIILF
- IC50 [21, 30]: 7.45 µM
- IC50 [22, 30]: 53 µM

Sequence: FFVWVIILF
- IC50 [22, 32]: 1.51 µM

Sequence: GEFGKAKGS
- Kd ([2]; source organism: Dengue virus 2 Jamaica/1409/1983): 4.16 µM

Sequence: GIAWIPYFG
- IC50 [21, 32]: 2.72 µM
- IC50 [22, 32]: ≥ 76.2 µM

Sequence: GIFEDRAPV
- Kd ([3]; source organism: Human alphaherpesvirus 1 strain 17): 0.5 µM

Sequence: IEQMANGIAL
- Kd [20, 25]: 0.00257 µM

Sequence: IEVKTCIWPK
- Kd [20, 31]: 2.91 µM

Sequence: IIRVTSELL
- Kd [4, 33]: ≥ 20 µM
- Kd [6, 33]: ≥ 20 µM
- Kd [7, 33]: ≥ 20 µM
- Kd [23]: ≥ 20 µM
- Kd [8, 33]: 13 µM
- Kd [10, 33]: ≥ 20 µM
- Kd [11, 33]: ≥ 20 µM
- Kd [12, 33]: ≥ 20 µM
- Kd [24]: ≥ 20 µM
- Kd [13, 33]: ≥ 20 µM
- Kd [14, 33]: ≥ 20 µM
- Kd [16, 33]: ≥ 20 µM
- Kd [17, 33]: ≥ 20 µM
- Kd [18, 33]: ≥ 20 µM
